Measurements from patent US20210292393A1 (published 2021).
Substitutions are numbered along the chain they refer to.

B1: antibody 316 (antibody, V domains shown)
VH: QVHLVESGGGVVQPGRSLRLSCAASGFTLTAYAMHWVRQAPGKRLEWVALISYDGSVKKYADSVKGRITVSGDTSTNTLHLQMNSLRADDTAVYYCVRGGVSGPNSFDLWGQGTMVTVSS
VL: DVVMTQSPLSLPVTLGQPASMSCRSSQSLEYSDGNTYVNWFHQRPGQSPRRLIYKVSYRDSGVPDRFSGSGSGTDFTLQISRVEAEDVGIYYCMQGTHWPVTFGQGTKVEIK
B2: antibody 327 (antibody, V domains shown)
VH: QVQLVESGGGVVQPGRSLRLSCAASGFNLSNYAMHWVRQASGKGLEWVSLISYDGSIKYYTDSVKGRFTVSGDNSKNTLFLQMNSLRPDDSALYYCVRGGVSGPNSFDMWGQGTTVTVSS
VL: B1 VL with M21I, E30V, H42Q, K55Q, Y58I, D60A, T77A, Q79K
B3: antibody 317 (antibody, V domains shown)
VH: QVQLVQSGAEVKKPGASVKVSCKVSGYTLTELSMHWVRQAPGKGLEWMGGFDPEDGETIYAQKFQGRVTMTEDTSTDTAYMELSSLRSEDTAVYYCASSPAAAGTSQYYYYYGMDVWGQGTTVTVSS
VL: not shown
B4: antibody 326 (antibody, V domains shown)
VH: QITLKESGPTLVKPTQTLTLTCTFSGFSLNTSGVGVGWIRQPPGKALEWLSLIFWNDDKRYSPSLRSRLTITKDTSKNQVVLTMTNMDPVDTATYFCAHRNSGWSLKFDSWGQGSLVTVSA
VL: DIQMTQSPSSVSASVGDRVTITCRARQGISSWLVWYQQKPGKAPKLLIFGASSLQSGVPSRFNASGTGTEFTLTISSLQPEDFATYYCQQADSFPITFGQGTRLEIK
B5: antibody 323 (antibody, V domains shown)
VH: QVQLVQSGAEVKKPGASVKVSCKVSGYTLTELSMHWVRQAPGKGLEWMGGFDPEDGETIYAQKFQGRVTMTEDTSTDTAYMELSSLRSEDTAVYYCATSTIFAPGGWFDPWGQGTLVTVSS
VL: QSALTQPASVSGSPGQSITISCTGTSSDVGSYNLVSWYQQHPGKAPKLMIYEVSKRPSGVSNRFSGSKSGNTASLTISGLQAEDEADYYCCSYAGSTHYVFGTGTKVTVL
B6: antibody 329 (antibody, V domains shown)
VH: EVQLVESGGGLVQPGGSLRLSCAASGFTFSSYWMHWVRQAPGKGLVWVSRINSDGSSTSYADSVKGRFTISRDNAKNTLYLQMNSLRAEDTAVYYCAREGIVATITLDYWGQGTLVTVSS
VL: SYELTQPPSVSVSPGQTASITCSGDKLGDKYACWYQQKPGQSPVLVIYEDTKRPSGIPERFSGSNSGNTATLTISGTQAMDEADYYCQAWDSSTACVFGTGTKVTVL
B7: antibody 320 (antibody, V domains shown)
VH: QVQLVQSGAEVKKPGASVKVSCKASGYTFTSYGISWVRQAPGQGLEWMGWISAYNGNTNYAQKLQGRVTMTTDTSTRTAYMELRSLRSDDTAVYYCARVGCYYDSSGYSCAENFQHWGQGTLVTVSS
VL: QSVLTQPPSVSGAPGQRVTISCTGSSSNIGAGYDVHWYQQLPGTAPKLLIYGNSNRPSGVPDRFSGSKSGTSASLAITGLQAEDEADYYCQSYDSSLSALFGGGTKLTVL
B8: antibody 317 (antibody, V domains shown)
VH: B3 VH
VL: not shown
B9: antibody 537 (antibody, V domains shown)
VH: QVQLQQWGAGLLKPSETLSLTCAVYGGSFSGYYWSWIRQPPGKGLEWIGEINHSGSTNYNPSLKSRVTISVDTSKNQFSLKLSSVTAADTAVYYCARGLYYDMGGGFDYWGQGTLVTVSS
VL: not shown
B10: antibody 543 (antibody, V domains shown)
VH: EVQLVESGGGLVQPGRSLRLSCAASGFTFHDYAMHWVRQAPGKGLEWVSGISWNSGSIGYADSVKGRFTISRDNAKNSLYLQMNSLRAEDTALYYCAKDTFGSSSWYRGDSYYYYGMDVWGQGTTVTVSS
VL: QSALTQPASVSGSPGQSITISCTGTSSDVGGYNYVSWYQQHPGKAPKLMIYEVSNRPSGVSNRFSGSKSGNTASLTISGLQAEDEADYYCSSYTSSSTQRYVVFGGGTKLTVL
B11: antibody 541 (antibody, V domains shown)
VH: QVQLVQSGAEVKKPGASVKVSCKASGYTFTSYYVHWVRQAPGQSLEWMGVISPSTGSTTYAQNFQGRVTMTRDTSTTTVYMELSSLRSEDTAVYYCARDDYYDSTRYFDLWGRGTLVTVSS
VL: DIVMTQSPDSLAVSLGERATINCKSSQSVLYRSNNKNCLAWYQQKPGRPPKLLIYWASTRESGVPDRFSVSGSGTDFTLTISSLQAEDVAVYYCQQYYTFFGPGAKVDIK
B12: antibody 487 (antibody, V domains shown)
VH: QVQLQESGPGLVKPSQTLSLTCTVSGGSISSGGYYWSWIRQHPGKGLEWIGYIYYSGSTYYNPSLKSRVTISVDTSKNQFSLKLSSVTAADTAVYYCARGPLDFWSGYFRLRYFDCWGQGTLVTVSS
VL: QSALTQPASVSGSPGQSITISCTGTSSDVGGYNYVSWYQQHPGKAPKLMIYDVTNRPSGVSNRFSGSKSGNTASLTISGLQAEDEADYYCSSYTSSSTCVFGTGTKVTVL
B13: antibody 498 (antibody, V domains shown)
VH: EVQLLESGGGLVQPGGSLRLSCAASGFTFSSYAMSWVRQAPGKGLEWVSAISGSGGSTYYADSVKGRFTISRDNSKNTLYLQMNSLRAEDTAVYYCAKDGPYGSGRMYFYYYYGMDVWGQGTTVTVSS
VL: QSALTQPASVSGSPGQSITISCTGTSSDVGSYNLVSWYQQHPGKAPKLMIYEGSKRPSGVSNRFSGSKSGNTASLTISGLQAEDEADYYCCSYAGSSTSFVVFGGGTKLTVL
B14: antibody 505 (antibody, V domains shown)
VH: EVQLVESGGGLVKPGGSLRLSCAASGFTFSSYSMNWVRQAPGKGLEWVSSISSSSSYIYYADSVKGRITISRDNAKNSLYLQMNSLRAEDTAVYYCAREYPNFRAEWLLSPYGMDVWGQGTTVTVSS
VL: B13 VL with G53V, F100V, V101K, G105T, L109V
B15: antibody 496 (antibody, V domains shown)
VH: QVQLVQSGAEVKKPGASVKVSCKASGYTFTDYYIHWVRQAPGQGLEWMGWINPNSGGTNYAQKFQGRLTMTRDTSISTAYMELSRLRSDDTAVYYCARVYSMFREFIINPYYYYYGLDVWGQGTTVTVSS
VL: B5 VL with G15R, V53G, T76A, D87N, T97S, H98T, Y99L, T103G, V107L
B16: antibody 507 (antibody, V domains shown)
VH: QVQLQESGPGLVKPSGTLSLTCAVSGGSISSSNWWSWVRQPPGKGLEWIGEIYHSGNTNYNPSLKSRVTISVDKSKNQFSLKLSSVTAADTAVYYCARREWLRLFDYWGQGTLVTVSS
VL: B5 VL with T97S, H98T
B17: antibody 510 (antibody, V domains shown)
VH: QVQLQESGPGLVKPSQTLSLTCTVSGGSISSGSYYWSWIRQPAGKGLEWIGRIYTSGSTNYNPSLKSRVTISVDTSKNQFSLKLSSVTAADTAVYYCAREGQWLYRFDYWGQGTLVTVSS
VL: B5 VL with S31N, N33D, M49V, E52G, S54T, G95T, S96G, T97D, H98T, Y99S
B18: antibody 523 (antibody, V domains shown)
VH: EVQLVESGGVSVQPGGSLRLSCAASGFSFNTYDMHWVRQGTGKGLEWVSGIGTAGDTYYSDSVKGRCTISRDNAKNSLHLLVKSVRAADTAVYYCARGVGGIIDYWGQGTLVTVSS
VL: NFVLSQPHSVSESPGKTVTISCTGNSGSIATKYVQWFQQRPGSAPTTVIYEDNQRPSGVPDRFSGSSDSSSNSASLTISGLKTEDEAHYYCQSYHNRRWVFGGGTKLTVL
B19: antibody 516 (antibody, V domains shown)
VH: QVELQQWGAGLLKPSETLSLTCAVYGGSFSGYYWSWIRQPPGKGLEWIGEINHSGSTNYNPSLKSRVTISIDTSKNQFSLKLSSVTAADTAVYYCARGTTVTTFFAPHWYFDLWGRGTLVTVSS
VL: QSALTQPASVSGSPGQSITISCTGTSSDVGGYNYVSWYQQHPGKAPKLMIYDVSNRPSGVSNRFSGSKSGNTASLTISGLQAEDEADYYCSSYTSSSTPYVFGTGTKVTVL
B20: antibody 514 (antibody, V domains shown)
VH: EVQLVQSGAEVKKPGATVKISCKVSGYTFTDYYMHWVQQAPGKGLEWMGLVDPEDGETIYAEKFQGRVTITADTSTDTAYMELSSLRSEDTAVYYCATDCKYDILTGHYSAGYYYYGMDVWGQGTTVTVSS
VL: DIQMTQSPSSLSASVGDRVTITCRASQGISNYLAWFQQKPGKAPKSLIYAASSLQSGVPSKFSGSGSGTDFTLTISSLQPEDFATYYCQQYNSYPFTFGGGTKVEIK
B21: antibody 533 (antibody, V domains shown)
VH: GVQLVESGGVVVQPGGSLRLSCAASGFSFDDYTMHWVRQAPGKGLEWVSLVSWDGGTTYYTDSVKGRFTISRDNSKNSLYLQMNSLRTEDTALYFCAKDSGRIVPAATFDYWGQGTLVTVSS
VL: B20 VL with P8S, G28D, N92Y, S93T, F96L
B22: antibody 497 (antibody, V domains shown)
VH: QVQLQESGPGLVKPSQTLSLTCTVSGGSINSFGYYWSWIRQHPGKGLEWIGYIYYSGSTDYNPSLNSRVTISLDTSKNQFLLKLTSVTAADTAVYYCAKLTDYYDSSGYSFDYWGQGTLVTVSS
VL: DIQMTQSPSSVSASVGDRVTITCRASQDISRWLAWYQQKPGKAPKLLIYAASSLQSGVPSRFSGRGSGTELTLTISSLQPEDFATYFCQQAYSFPFTFGGGTKVEIK
B23: antibody 522 (antibody, V domains shown)
VH: EVQLVESGGGLVQPGGSLRLSCAASGFNFSSYSMNWVRQAPGKGLEWVSYISSSSSTIYYADSVKGRFTISRDNAKNSLYLQMNSLRDEDTAVYYCARGPEWDIVVVQAENWFDPWGQGTLVTVSS
VL: SYELTQPPSVSVSPGQTARITCSGDALPKQYVYWYQQKPGQAPVLVIYKDSERPSGIPERFSGSSSGTTVTLTISGVQAEDEADYYCQSADSSGTYRGVFGGGTKLTVL

These binders were tested against SARS-CoV-2 full length spike protein (wild type) (SARS-CoV-2, UniProt P0DTC2 14-1208).
In the case of B1, the “median fluorescence intensity fold over isotype” value is reported as 442 fold over isotype control. For B2, the “median fluorescence intensity fold over isotype” value was 413 fold over isotype control. For B3, the “median fluorescence intensity fold over isotype” value was 890 fold over isotype control. With B4 the “median fluorescence intensity fold over isotype” value was 193 fold over isotype control. In the case of B5, the “median fluorescence intensity fold over isotype” value is reported as 994 fold over isotype control. For B6, the “median fluorescence intensity fold over isotype” value was 497 fold over isotype control. B7 was tested, and the “median fluorescence intensity fold over isotype” value was 1200 fold over isotype control.

What follows are binders tested against full-length trimeric SARS-CoV spike protein (SARS-CoV, UniProt P59594 14-1190).
B8 was tested, and the “median fluorescence intensity, fold over isotype control” value was 1.14 fold over isotype.

What follows are binders tested against SARS-CoV spike protein (full-length trimeric, on beads) (SARS-CoV, UniProt P59594 14-1190).
With B9 the “bead binding signal, fold over isotype control” value (“bead binding signal, fold” below) was 1.04 fold over isotype. B10 was tested, and the “bead binding signal, fold” value was 1.03 fold over isotype. For B11, the “bead binding signal, fold” value was 1.2 fold over isotype. With B12 the “bead binding signal, fold” value was 7.25 fold over isotype. For B13, the “bead binding signal, fold” value was 1.31 fold over isotype. For B14, the “bead binding signal, fold” value was 1.04 fold over isotype. B15 was tested, and the “bead binding signal, fold” value was 1.15 fold over isotype. In the case of B16, the “bead binding signal, fold” value is reported as 1.07 fold over isotype. In the case of B17, the “bead binding signal, fold” value is reported as 1.03 fold over isotype. B18 was tested, and the “bead binding signal, fold” value was 1.11 fold over isotype. For B19, the “bead binding signal, fold” value was 1.03 fold over isotype. In the case of B20, the “bead binding signal, fold” value is reported as 1.15 fold over isotype. With B21 the “bead binding signal, fold” value was 1.23 fold over isotype. In the case of B22, the “bead binding signal, fold” value is reported as 1.23 fold over isotype. In the case of B23, the “bead binding signal, fold” value is reported as 1.21 fold over isotype.
